This is an account of results in patent US20250381307A1, “RETRO-AAV AND USE IN TREATING NEURODEGENERATIVE DISEASES” (priority 2023, published 2025).

Changes are numbered by the printed parent chain. In names and notes the source's numbering stands.

Series [1] deals with striatonigral projection neurons (striatal MSNs). In words: Retrograde labeling of striatal MSNs after AAV injection into the SNr (EYFP+ cell counting). It counts as in vivo, mice. Conditions: for reporter-labeled MSNs by promoter (FIG. 4B): SNr injection, n=3 mice, mean±SEM; for Activity Level STR: striatum, numbers of YFP-expressing neurons per animal; for Labeling Efficiency in Striatonigral Pathway: AAV8R capsid mutants, numbers of labeled neurons per animal. The text has this: (§1) Brain profiles of two epigenetic marks for enhancers and promoters, monomethylation of histone H3 lysine 4 (H3K4me1) and acetylation of histone H3 lysine 27 (H3K27ac) were checked and approximately 2 kilobase-long sequences around the transcriptional start site (TSS) that have high levels of H3K4me1 and/or H3K27ac were identified in mouse brain. Homologous sequences at equivalent positions of the human genome were then cloned onto an AAV backbone, and the activity of the homologous sequences in directing reporter expression was tested in mice after injections of AAVs into the SNr (FIG. 3A-C, TABLE 3).
(§2) Mice were anesthetized with sodium pentobarbital (Nembutal; 80 mg/kg, i.p.), and then placed into a stereotaxic device (KOPF). Eye cream was applied on both corneas to avoid dehydration. The skull above the targeted areas was thinned with a dental drill and carefully removed. Injections were conducted with a 10 μL syringe connected to a 33-Gauge needle (Neuros; Hamilton), using a microsyringe pump (Legato 130, KD Scientific). A total volume of 200 nL virus was injected into the SNr at a speed of 20 nL/min. The coordinates for the SNr were 3.4 mm posterior, 1.3 mm lateral, 4.8 mm ventral to the bregma.
(§3) Images were acquired using a confocal microscope (Carl Zeiss, LSM880) and an Axiolmager.Z1 microscope with apotome (Carl Zeiss). Brain structures were identified microscopically and in digital photos using a mouse brain atlas. To analyze the number of EYFP+ cells in the striatum, slices from rostral to caudal striatum were used. Every sixth section was analyzed, and numbers of EYFP+ cells were multiplied by six to acquire the approximate total number and mean number of cells per animal. Images were processed using ImageJ (NIH, USA), and final quantifications were independently performed manually by two blinded experimenters.

For a further series, the system named is substantia nigra. As to the kind of experiment: Promoter activity level in substantia nigra after AAV injection into the SNr. It is filed as in vivo, mice. Conditions: numbers of YFP-expressing neurons per animal.
Description: as §1, §2, §3

For “G88P2: 2259-bp promoter from the gene GPR88 (SEQ ID NO: 44)”, in series [1], the “reporter-labeled MSNs by promoter (FIG. 4B)” value came out at 36290±3705 and the “Activity Level STR” value is “++++ (>25k)”. Moreover, the “Activity Level SN” value with substantia nigra is on record as “+ (<5k)”.

As for “R9P1: tested promoter from gene RGS9, 2152 bp (SEQ ID NO: 47)”, in series [1], the “Activity Level STR” value is reported as “+++ (10k-25k)”. For the same molecule, the “Activity Level SN” value with substantia nigra was “+ (<5k)”.

B1: G88P3: 1395-bp shortened derivative of G88P2 promoter (SEQ ID NO: 45) (nucleic acid, listed as Homo sapiens)
DNA: TCTAGATGTACCACTGACATCTGCTTTAAATCTTTTGCCCATTTCATTTTTACCCTCTAACCATTTCATTACTAAAACACAAAACAAACTCCGGAAAGGAGTTTGTTGATGAGAAAACACTGAAAGTACGATTTAAATTGAGGAATGGAGATTTTCTGTGGATAATTGTCTATGTTCCACTTTACCAAAGAAAAATGAATTTCAAGTAGTGCATAAAGTAATTCTCGTTAAAAAATGTGGGAATAAAGAGATCAGTCCTGGGTACTGGGAATATATTTATCTCACAGAAAAATCTTGCCCACAAAATGCATCAGACTGAGATGAAATACTCTAGGGTATATTAAATTTTATTCTAATATTGAAGGGAGGGAAAAAAAGGACGGAAAGAAAAATGAAACAGGATGAAAAATAAGGTGATTGGGAGAGAGAAAAGACAGAGAAACTTGTTAACGACAGGACTTTCTGAGCAAGATATTTTTCTTCCTTTTACAAGTTGGAAGCTATTGAATAATTCATGCCAAGCGTGGAAAGGCTGTCTTTTCCCTGGATGATGTATAACTAAGCAGGAGAGAGCTTCGAGTGGGTTCACCACATCAGCCACCACTCCTGCTTCTGAGCACAGGGTGCTCTCCTCTTGAGCTCAGCTTCTGCTTTTGCAGCCAAGCATTCTTGCTGCTGCTGCCTGCCTGCCCACCCGCCTGGGCTTGCAGCCCGCCACTTTACTTTCTCCAGCCCTGATACCAGCTGAGAAGTCTCCCTGCAGCTGCTAGTTCCTGCCCAGGACCATGTGTGTGGATGCTGCTTGGGAGAAGCGGGCACTTGCTCCTGGCACTGATCCCAGCTGAGTTTCTCCTGTTGATTTCTGGACCACTGATGCTGTTGCTGAGGAGGTATTTCCCGGCATCCCTCCCCCTGAGACACCGGCTAAGGACCAGCCTAAACGCAAGGTAACCTTCACCTCTTTCCCATGGGATTTTCCCCAGCTGGGATATCTCTGCTTTCTCCTGGAACTAGGTCCTCCAGCTGGCAACATATCTCTCTCTCTCTCTCTCTCTCTCTCTCTCTCTCTCTGTGTGTGTGTGTGTGTGTTGGGGGAGAAGAGGAGACTGTTTTAGGTATTGCTCTGTCCTAGGGCTTCCCCGATACCTGCTGAATCCAATGCAAAGTGGCCTTTCCCCTGGCTCTGGAGACATTTCCGAGGCAGGCACCTGTCATTTGCCACCCCCGTCCTCCTCCTCGAGCTCCCTTTCTCCCCCTCCCCCAGCCCATTATTCTGCTTCAGCCTTTTGTGTCAGTGGCAGAGGGCTGAAGGGATGTCTTTGCCCTTCTGGCAGGCAGGACAGTGTCAGGATGGACCGCGCTGCCAGAAGCCGACGCTAGCGAGGGAGGTGTGAA
As to B1, in series [1], the “reporter-labeled MSNs by promoter (FIG. 4B)” value is listed as 37026±6646 and the “Activity Level STR” value was “++++ (>25k)”. Besides, in series [1] (viruses expressing EYFP, injection into the SNr (FIG. 4B)), the “labeled MSNs per mouse” value was 3.7±0.66 ×104 MSNs per mouse. In addition, in the series with substantia nigra, the “Activity Level SN” value was “+ (<5k)”.

B2: AAV8R4: AAV8R capsid mutant R490Q (SEQ ID NO: 5) (protein)
chain: MAADGYLPDWLEDNLSEGIREWWALKPGAPKPKANQQKQDDGRGLVLPGYKYLGPFNGLDKGEPVNAADAAALEHDKAYDQQLQAGDNPYLRYNHADAEFQERLQEDTSFGGNLGRAVFQAKKRVLEPLGLVEEGAKTAPGKKRPVEPSPQRSPDSSTGIGKKGQQPARKRLNFGQTGDSESVPDPQPLGEPPAAPSGVGPNTMAAGGGAPMADNNEGADGVGSSSGNWHCDSTWLGDRVITTSTRTWALPTYNNHLYKQISNGTSGGATNDNTYFGYSTPWGYFDFNRFHCHFSPRDWQRLINNNWGFRPKRLSFKLFNIQVKEVTQNEGTKTIANNLTSTIQVFTDSEYQLPYVLGSAHQGCLPPFPADVFMIPQYGYLTLNDGSQAVGRSSFYCLEYFPSQMLRTGNNFQFTYTFEDVPFHSSYAHSQSLDRLMNPLIDQYLYYLSRTQTTGGTANTQTLGFSQGGPNTMANQAKNWLPGPCYRQQQVSTTTGQNNNSNFAWTAGTKYHLNGRNSLANPGIAMATHKDDEERFFPSNGILIFGKQNAARDNADYSDVMLTSEEEIKTTNPVATEEYGIVADNLQRGNLADQDYTKTARQAATADVNSQGALPGMVWQNRDVYLQGPIWAKIPHTDGNFHPSPLMGGFGLKHPPPQILIKNTPVPADPPTTFNQSKLNSFITQYSTGQVSVEIEWELQKENSKRWNPEIQYTSNYYKSINVDFAVNTEGVYSEPRPIGTRYLTRNL
Take B2: in series [1], the “Labeling Efficiency in Striatonigral Pathway” value (“Labeling Efficiency” below) is given as “+ (<5k)”.

B3: AAV8R2: AAV8R capsid mutant N411S (SEQ ID NO: 3) (protein)
chain: B2 chain with N411S, Q490R
As to B3, in series [1], the “Labeling Efficiency” value is “+ (<5k)”.

B4: AAV8R3: AAV8R capsid mutant Y447F (SEQ ID NO: 4) (protein)
chain: B2 chain with Y447F, Q490R
As for B4, in series [1], the “Labeling Efficiency” value was “+ (<5k)”.

B5: AAV8R9: AAV8R capsid mutant V125I + F536Y (SEQ ID NO: 10) (protein)
chain: B2 chain with V125I, Q490R, F536Y
Regarding B5, in series [1], the “Labeling Efficiency” value is recorded as “+ (<5k)”.

B6: AAV8R8: AAV8R capsid mutant T495A (SEQ ID NO: 9) (protein)
chain: B2 chain with Q490R, T495A
As for B6, the “Labeling Efficiency” value in series [1] is “+ (<5k)”.

B7: AAV8R10: AAV8R capsid mutant V125I + A606S (SEQ ID NO: 11) (protein)
chain: B2 chain with V125I, Q490R, A606S
As for B7, the “Labeling Efficiency” value in series [1] is given as “+ (<5k)”.

B8: AAV8R1: AAV8R capsid mutant V183E (SEQ ID NO: 2) (protein)
chain: B2 chain with V183E, Q490R
In the case of B8, in series [1], the “Labeling Efficiency” value is given as “+ (<5k)”.

B9: AAV8R13: AAV8R capsid mutant V125I + F536Y + T495A (SEQ ID NO: 14) (protein)
chain: B2 chain with V125I, Q490R, T495A, F536Y
In the case of B9, the “Labeling Efficiency” value in series [1] is reported as “++ (5k-10k)”.

B10: AAV8R7: AAV8R capsid mutant A606S (SEQ ID NO: 8) (protein)
chain: B2 chain with Q490R, A606S
As to B10, in series [1], the “Labeling Efficiency” value is on record as “+ (<5k)”.

B11: AAV8R11: AAV8R capsid mutant V125I + T495A (SEQ ID NO: 12) (protein)
chain: B2 chain with V125I, Q490R, T495A
For B11, the “Labeling Efficiency” value in series [1] is “+ (<5k)”.

B12: AAV8R14: AAV8R capsid mutant V125I + A606S + T495A (SEQ ID NO: 15) (protein)
chain: B2 chain with V125I, Q490R, T495A, A606S
On to B12, for which the “Labeling Efficiency” value in series [1] is given as “++ (5k-10k)”.

B13: AAV8R6: AAV8R capsid mutant F536Y (SEQ ID NO: 7) (protein)
chain: B2 chain with Q490R, F536Y
As to B13, the “Labeling Efficiency” value in series [1] was “+ (<5k)”.

B14: AAV8R5: AAV8R capsid mutant V125I (SEQ ID NO: 6) (protein)
chain: B2 chain with V125I, Q490R
As for B14, the “Labeling Efficiency” value in series [1] is “+ (<5k)”.
